Measured values as given in IntAct's records for PubMed 26555173.

B1: Sterol regulatory element-binding protein cleavage-activating protein (Cricetulus griseus (Chinese hamster)), P97260 (parent)
chain: MTLTERLREKISQAFYNHGLLCASYPIPIILFTGLCILACCYPLLKLPLPGTGPVEFSTPVKDYSPPPVDSDHKQGEPSEQPEWYVGAPVAYIQQIFVKSSVSPWHKNLLAVDVFRLPLSRAFQLVEEIRNHVLRDSSGTKSLEEVCLQVTDLLPGLRKLRNLLPEHGCLLLSPGNFWQNDWERFHADPDIIGTIHQHEPKTLQTSATLKDLLFGVPGKYSGVSLYTRKRTVSYTITLVFQRYHAKFLSSLRARLMLLHPSPNCSLRAENLVHVHFKEEIGIAELIPLVTTYIILFAYIYFSTRKIDMVKSKWGLALAAVVTVLSSLLMSVGLCTLFGLTPTLNGGEIFPYLVVVIGLENVLVLTKSVVSTPVDLEVKLRIAQGLSSESWSIMKNVATELGIILIGYFTLVPAIQEFCLFAVVGLVSDFFLQMFFFTTVLSIDIRRMELADLNKRLPPESCLPSAKPVGRPARYERQLAVRPAMPHTITLQPSSFRNLRLPKRLRVIYFLARTRLAQRLIMAGTVVWIGILVYTDPAGLRTYLAAQVTEQSPLGEGSLGPMPVPSGVLPASRPDPAFSIFPPDAPKLPENQTVPGELPEHAAPAEGVHDSRAPEVTWGPEDEELWRRLSFRHWPTLFNYYNITLAKRYISLLPVIPVTLRLNPQEALEGRQPQDGRSAWAPPESLPAGLWEAGPKGPGGTQAHGDITLYKVAALGLAAGIVLVLLLLCLYRVLCPRNYGQPGGGAGRRRRGELPCDDYGYAPPETEIVPLVLRGHLMDIECLASDGMLLVSCCLAGQVCVWDAQTGDCLTRIPRPGSRRDSCGGGAFETQENWERLSDGGKTSPEEPGESPPLRHRPRGPPQPALFGDQPDLTCLIDTNFSVQLPPEPTQPEPRHRAGCGRARDSGYDFSRLVQRVYQEEGLAAVRMPALRPPSPGSPLPQASQEDGAAPEKGSPPLAWAPSTAGSIWSLELQGNLIVVGRSSGRLEVWDAIEGVLCCSNDEVSSGITALVFLDRRIVAARLNGSLDFFSLETHTSLSPLQFRGTPGRGSSPSSSVYSSSNTVACHLTHTVPCAHQKPITALRAAAGRLVTGSQDHTLRVFRLEDSCCLFTLQGHSGAITTVYIDQTMVLASGGQDGAICLWDVLTGSRVSHTFAHRGDVTSLTCTTSCVISSGLDDLINIWDRSTGIKLYSIQQDLGCGASLGVISDNLLVTGGQGCVSFWDLNYGDLLQTVYLGKNSEAQPARQILVLDNAAIVCNFGSELSLVYVPSVLEKLD
partner: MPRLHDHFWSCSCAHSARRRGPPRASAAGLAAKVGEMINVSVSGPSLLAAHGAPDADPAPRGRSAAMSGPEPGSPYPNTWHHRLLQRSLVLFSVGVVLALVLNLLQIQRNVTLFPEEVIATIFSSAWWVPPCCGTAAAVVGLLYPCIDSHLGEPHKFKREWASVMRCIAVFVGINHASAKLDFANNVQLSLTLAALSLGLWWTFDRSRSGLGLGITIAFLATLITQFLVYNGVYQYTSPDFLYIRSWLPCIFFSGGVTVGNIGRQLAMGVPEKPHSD

Variants of: B1
Conditions: with insi1_human INSIG1, O15503

| effect of a mutation on the interaction | Variant |
| --- | --- |
| increasing interaction strength | N263E;N590E;N641E |
